{
  "source": "paper PMC7589674",
  "target": "The-05 (variant of the HFt-MP-PASE construct bearing the Lys53Glu, Lys71Glu, Thr135Glu and Lys143Glu mutations) (human)",
  "test": "SEC + other: dynamic light scattering + other: negative-stain TEM; empty The-05; Superose 6 in PBS pH 7.4; DLS at 25 °C, 1 mg/mL in diluted PBS (1:2); TEM 0.1 mg/mL, 2% uranyl acetate; assembly of the subunits into the cage",
  "data": [
    {"substance": "The-05 (variant of the HFt-MP-PASE construct bearing the Lys53Glu, Lys71Glu, Thr135Glu and Lys143Glu mutations) (designed binder)", "values": [
      {"measurement": "stoichiometry N", "value": 24}
    ]}
  ]
}
